Data as given in patent publication EP4778941A1, “HER3/MET BINDING MOLECULE AND PHARMACEUTICAL USE THEREOF” (priority 2023, dated 2025).
Read-outs that look alike come from different tables or passages of the source.

Experiments:
[1] = target: Human HER3 protein on the cell surface (human) (UniProt P21860); test: FACS on MDA-MB-453 cells (HER3 single-positive)
[2] = target: Human MET protein on the cell surface (human) (UniProt P08581); test: FACS on NCI-H1703 cells (MET single-positive)
[3] = target: Human HER3 and MET proteins together on HER3/MET double-positive cells (human) (UniProt P21860); test: FACS on HCC827 Osimertinib-resistant cells (HER3/MET double-positive)
[4] = target: Human HER3 and MET proteins together on HER3/MET double-positive cells (human) (UniProt P21860); test: cell-based or functional assay
[5] = target: Human HER3 protein on the cell surface (human) (UniProt P21860); test: cell-based or functional assay
[6] = target: Human MET protein on the cell surface (human) (UniProt P08581); test: cell-based or functional assay
[7] = target: Human HER3 and MET proteins together on HER3/MET double-positive cells (human) (UniProt P21860); test: cell-based or functional assay; remark: listed apart in the source

Human MET protein on the cell surface (human), sequence (P08581 25-1390): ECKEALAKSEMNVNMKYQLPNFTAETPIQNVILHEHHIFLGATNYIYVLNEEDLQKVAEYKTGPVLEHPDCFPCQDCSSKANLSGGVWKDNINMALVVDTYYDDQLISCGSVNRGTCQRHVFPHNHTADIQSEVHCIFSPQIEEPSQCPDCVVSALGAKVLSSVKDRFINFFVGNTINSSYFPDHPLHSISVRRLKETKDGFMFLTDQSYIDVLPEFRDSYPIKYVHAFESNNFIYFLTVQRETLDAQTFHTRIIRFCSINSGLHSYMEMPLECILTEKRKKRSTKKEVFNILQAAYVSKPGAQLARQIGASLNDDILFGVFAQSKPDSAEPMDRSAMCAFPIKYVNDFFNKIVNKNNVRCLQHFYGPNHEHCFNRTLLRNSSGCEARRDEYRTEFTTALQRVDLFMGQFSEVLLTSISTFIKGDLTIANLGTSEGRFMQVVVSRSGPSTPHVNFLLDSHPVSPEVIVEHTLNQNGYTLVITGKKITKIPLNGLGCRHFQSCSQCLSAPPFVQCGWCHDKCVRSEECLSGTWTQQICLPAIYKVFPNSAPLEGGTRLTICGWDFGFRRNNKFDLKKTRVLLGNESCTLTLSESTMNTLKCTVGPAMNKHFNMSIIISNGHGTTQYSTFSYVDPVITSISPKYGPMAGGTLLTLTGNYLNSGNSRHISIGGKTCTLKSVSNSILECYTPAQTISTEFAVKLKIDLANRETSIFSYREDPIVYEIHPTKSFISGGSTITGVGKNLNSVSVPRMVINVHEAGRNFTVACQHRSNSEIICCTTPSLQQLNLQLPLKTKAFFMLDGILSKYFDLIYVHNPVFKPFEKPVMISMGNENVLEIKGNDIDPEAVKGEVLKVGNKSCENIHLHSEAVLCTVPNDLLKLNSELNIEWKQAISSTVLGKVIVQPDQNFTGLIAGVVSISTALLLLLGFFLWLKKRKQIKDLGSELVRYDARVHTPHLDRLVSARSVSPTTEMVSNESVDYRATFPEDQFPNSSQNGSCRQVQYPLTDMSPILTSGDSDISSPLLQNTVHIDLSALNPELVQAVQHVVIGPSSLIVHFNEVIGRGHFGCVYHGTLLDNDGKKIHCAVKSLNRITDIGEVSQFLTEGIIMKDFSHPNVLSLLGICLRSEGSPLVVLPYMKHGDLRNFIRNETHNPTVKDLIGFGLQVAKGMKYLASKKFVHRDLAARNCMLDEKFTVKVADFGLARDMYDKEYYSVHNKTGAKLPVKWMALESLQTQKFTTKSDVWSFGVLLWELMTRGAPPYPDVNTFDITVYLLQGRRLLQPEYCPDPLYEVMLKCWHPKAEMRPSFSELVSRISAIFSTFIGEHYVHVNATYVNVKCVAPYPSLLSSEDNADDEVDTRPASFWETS

Substance: IgG1 isotype control antibody
- Maximum fluorescence value [1]: 74
- Maximum fluorescence value [2]: 74
- Maximum fluorescence value [3]: 74
- Minimum cell viability (%) [4]: 90.9%
- Minimum cell viability (%) [5]: 92.9%
- Minimum cell viability (%) [6]: 78.6%
- Minimum cell viability (%) [7]: 102%
